The DeepSol protein solubility set

Test: soluble on expression in E. coli; label from the status in PepcDB or PDB records

| Sequence | soluble on expression in E. coli |
| --- | --- |
| LQERDIVPVDASYEVKELYVPENKLHLAKTDAETLPALKINKVDMQWVQVLAEGWATPLNGFMREREYLQCLHFDCLLDGGVINLSVPIVLTATHEDKERLDGCTAFALMYEGRRVAILRNPEFFEHRKEERCARQWGTTCKNHPYIKMVMEQGDWLIGGDLQVLDRVYWNDGLDQYRLTPTELKQKFKDMNADAVFAFQLRNPVHNGHALLMQDTHKQLLERGYRRPVLLLHPLGGWTKDDDVPLMWRMKQHAAVLEEGVLNPETTVVAIFPSPMMYAGPTEVQWHCRARMVAGANFYIVGRDPAGMPHPETGKDLYEPSHGAKVLTMAPGLITLEIVPFRVAAYNKKKKRMDYYDSEHHEDFEFISGTRMRKLAREGQKPPEGFMAPKAWTVLTEYYKSLEKA | soluble |
| MIITIPIKNQKDIGTPSDSVVVLGYFDGIHKGHQELFRVANKAARKDLLPIVVMTFNESPKIALEPYHPDLFLHILNPAERERKLKREGVEELYLLDFSSQFASLTAQEFFATYIKAMNAKIIVAGFDYTFGSDKKTAEDLKNYFDGEVIIVPPVEDEKGKISSTRIRQAILDGNVKEAGKLLGAP | not soluble |
| MTYAESTRSAVVYSSIVPPPRTPVGPPMLKDGVRKGSASQPLQPKNGANSLDYWSKSEDEKSGITCYYSRHNIQFPPPQRKMKPVKPNPVGRSTINGFTPSTSSPQNGLRYPPFPQNTPESVMSPPVGIYRNIPAMPRAKLTKDEKNGGKMNRDGGGENPKNVVWGGTSRKDDDTASTPLNSFSANASIEKKRSTARRKPRWARCFQTLFCCVTPPREIEKIQSSQRTNSTNNNHQNGRPSTPTNTGPPIQLITQVHRDGTVTGLPTTGQACQQNGSGDGVTPYDKIANDSVGTINEKPLLPPLLPQDSNKKCLVIDLDETLVHSSFKPVKNPDFVIPVEIDGVEHQVYVLKRPYVDEFLAKVGEHFECILFTASLAKYADPVADLLDKKRVFRGRLFREACVFHKGNYVKDLSRLGRNLNQTLIIDNSPASYAFHPENAVPVTTWFDDPSDTELLDILPSLEHLNGFSSIYDLYRPEEGPQSELLNHCSC | not soluble |
| MSSQKVFGITGPVSTVGATAAENKLNDSLIQELKKEGSFETEQETANRVQVLKILQELAQRFVYEVSKKKNMSDGMARDAGGKIFTYGSYRLGVHGPGSDIDTLVVVPKHVTREDFFTVFDSLLRERKELDEIAPVPDAFVPIIKIKFSGISIDLICARLDQPQVPLSLTLSDKNLLRNLDEKDLRALNGTRVTDEILELVPKPNVFRIALRAIKLWAQRRAVYANIFGFPGGVAWAMLVARICQLYPNACSAVILNRFFIILSEWNWPQPVILKPIEDGPLQVRVWNPKIYAQDRSHRMPVITPAYPSMCATHNITESTKKVILQEFVRGVQITNDIFSNKKSWANLFEKNDFFFRYKFYLEITAYTRGSDEQHLKWSGLVESKVRLLVMKLEVLAGIKIAHPFTKPFESSYCCPTEDDYEMIQDKYGSHKTETALNALKLVTDENKEEESIKDAPKAYLSTMYIGLDFNIENKKEKVDIHIPCTEFVNLCRSFNEDYGDHKVFNLALRFVKGYDLPDEVFDENEKRPSKKSKRKNLLEHHHHHH | soluble |
| MSGHFNYIVVGRGMMGAAAARHLAETVDGVALIGPGEPADIKSHQGVFASHYDEARITRTIDGDPDWALLANRSIARYADIAARSGVEFYAPVGCLMVGPERGGANPFVDDVLRAAARLGVSTELLGDQSLKSRFPYFSFEPGCEGVFERDNAGYVNPRALVKAQAILAEKAGVTLIDDIVVSTREEDGRASVQTASGAVYTAERVLVAAGGFSITRDLLPQPVGLDVYARTVAFFEIDEGDLGQYAGMPSLIYEPHDTTKHIYLLPPVRYPDGKFYLKIGGDPDDKRVGSDPEIREWFRSGGRESVRDHLSEIVGTLVPSVDHSRVSMAACVVSKTKSGYPAIGFTASPRIAVLTGGNGTAAKSSDEIGRLGAALLRDGKIADDAFSTDFKPEFL | not soluble |
| MQRERTAESSLRVISKEKNSITVEMINYDNTLLRTLVEEILKDDQVDEARYYIKHPVIDNPQIYVRVKSGKPQSAIKRAVRKLSKLYEDLGTQFQKEFQRYESDHMIKAVE | soluble |
| MSLHLKVFAKPKITYVENQTAMELEEQVTLTCEASGDPIPSITWRTSTRNISSEEKASWTRPEKQETLDGHMVVRSHARVSSLTLKSIQYTDAGEYVCTASNTIGQDSQSMYLEVQYAPKLQGPVAVYTWEGNQVNITCEVFAYPSATISWFRDGQLLPSSNYSNIKIYNTPSASYLEVTPDSENDFGNYNCTAVNRIGQESLEFVLVQADTPSSPSIDQVEPYSSTAQVQFDEPEATGGVPILKYKAEWRAMGEEVWHSKWYDAKEASMEGIVTIVGLKPETTYAVRLAALNGKGLGEISAASEFKTQPVREPSAEGHHHHHH | not soluble |
| MPKVGMQPIRRQQLIQATLTAVDQVGMGDASIALIARLAGVSNGIISHYFQDKNGLIAATMRHLMNALIQNVRERRQALTEDSPRAHLQVIIEGNFDASQVSGPAMKTWLAFWATSMHHPSLHRLQRINDHRLYSNLCCQFRRTLPLEQARNAARGLAALIDGLWLRGALSGDAFDTEQAQRIAYEYMDFQLAKSAS | not soluble |
| MKIKHLPFDQNRNGWSADLVDKPNYPQQRGKTTADWLVIGAGYAGIAFAQRLAEQRPDKHIILLDAGEIGDNASGRNSGFVIDLPHNIGSSTAELEKAAAYRRLLQSGVAHLKEKVDRHAIACDWSVAGKYHCAVSSTFNGLIDTYVRELNGLGEPYQVVEKDELARRLGTSFYQRAVYTPNCILLNPAALVIGLVASLPKNVTVYAHSPALNIETGSRIRVETPYGEIQADKLMMAINGAARGLPLFNGRVFAVTTFATLTEPLNAEQTARMGDMPDWGLTPVNALASATLRYTRDHRFLIREHVKFAPELVNSAVETGRHARRHAAIFARMFPQLSDVKMAHTWSGLISVTRNGAPIWGQLSDNVFASAGCNGAGLSKQTAAGHILADLALGEDNPLISDMQSLGQANYLPPRPFLDVGVNGYLTSERWKARSERLEHHHHHH | not soluble |
| PSPGGQMHAGISSFQQSNSSGTYGPQMSQYGPQGNYSRPPAYSGVPSASYSGPGPGMGISANNQMHGQGPSQPCGAVPLGRMPSAGMQNRPFPGNMSSMTPSSPGMSQQGGPGMGPPMPTVNRKAQEAAAAVMQAAANSAQSRQGSFPGMNQSGLMASSSPYSQPMNNSSSLMNTQAPPYSMAPAMVNSSAASVGLADMMSPGESKLPLPLKADGKEEGTPQPESKSKDSYSSQGISQPPTPGNLPVPSPMSPSSASISSFHGDESDSISSPGWPKTPSSPKSSSSTTTGEKITKVYELGNEPERKLWVDRYLTFMEERGSPVSSLPAVGKKPLDLFRLYVCVKEIGGLAQVNKNKKWRELATNLNVGTSSSAASSLKKQYIQYLFAFECKIERGEEPPPEVFSTGDTKKQPKLQPPSPANSGSLQGPQTPQSTGSNSMAEVPGDLKPPTPASTPHGQMTPMQGGRSSTISVHDPFSDVSDSSFPKRNSMTPNAPYQQGMSMPDVMGRMPYEPNKDPFGGMRKVPGSSEPFMTQGQMPNSSMQDMYNQSPSGAMSNLGMGQRQQFPYGASYDRRHEPYGQQYPGQGPPSGQPPYGGHQPGLYPQQPNYKRHMDGMYGPPAKRHEGDMYNMQYSSQQQEMYNQYGGSYSGPDRRPIQGQYPYPYSRERMQGPGQIQTHGIPLQMMGGPLQSSSSEGPQQNMWAARNDMPYPYQNRQGPGGPTQAPPYPGMNRTDDMMVPDQRINHESQWPSHVSQRQPYMSSSASMQPITRPPQPSYQTPPSLPNHISRAPSPASFQRSLENRMSPSKSPFLPSMKMQKVMPTVPTSQVTGPPPQPPPIRREITFPPGSVEASQPVLKQRRKITSKDIVTPEAWRVMMSLKSGLLAESTWALDTINILLYDDSTVATFNLSQLSGFLELLVEYFRKCLIDIFGILMEYEVGDPSQKALDHNAARKDDSQSLADDSGKEEEDAECIDDDEEDEEDEEEDSEKTESDEKSSIALTAPDAAADPKEKPKQASKFDKLPIKIVKKNNLFVVDRSDKLGRVQEFNSGLLHWQLGGGDTTEHIQTHFESKMEIPPRRRPPPPLSSAGRKKEQEGKGDSEEQQEKSIIATIDDVLSARPGALPEDANPGPQTESSKFPFGIQQAKSHRNIKLLEDEPRSRDETPLCTIAHWQDSLAKRCICVSNIVRSLSFVPGNDAEMSKHPGLVLILGKLILLHHEHPERKRAPQTYEKEEDEDKGVACSKDEWWWDCLEVLRDNTLVTLANISGQLDLSAYTESICLPILDGLLHWMVCPSAEAQDPFPTVGPNSVLSPQRLVLETLCKLSIQDNNVDLILATPPFSRQEKFYATLVRYVGDRKNPVCREMSMALLSNLAQGDALAARAIAVQKGSIGNLISFLEDGVTMAQYQQSQHNLMHMQPPPLEPPSVDMMCRAAKALLAMARVDENRSEFLLHEGRLLDISISAVLNSLVASVICDVLFQIGQL | soluble |
| MSLNHILETLIKLLKVGMEAIDRKGLIAILTSSIGNDEMDDSEQAVMVYNELIDKLQLNIPKDVDYRPNIYSYFGIQKKPNDTILVEMMISIFHIKRFDSELFVFKDKGWQKVNEDELQGLISKMIQVLLVDYKPSLSILKNVVVGLQNSIDVEELVENKQYIGCGHNMFNLDAFEVVGNSIKIFPATRLNLELVKSDVITEKTPPHFNRYMLEFANFDSDLQYFLFQHIAVLLTANTKYRRALLLYGGAKNGKSVFINLVRSFFYSEDIVSKALNELQGRFDKESLVGKKLMASDEIGESRIQEKIVNDLKKLVSVEPVHVDRKGKTQVETTLDLKLAFGTNARLNFPSAHAKALERRIAVIPCEYYVEKADPDLIEKLQDEKKEIFLYLMYVYKQIVKNDIEYLQNDRVTEISHDWLNFGYEFVSSKSASIANQKACINLLRKLIEIKPGSRIKVSELNKVINEEIKVSSQVIKQLIQANFDTQTKLYNGYDYWIDLGWKEADKKEIHDISKKDNIISLDKNENITDDETLDEENLDFDWEDFDDEGHHHHHH | soluble |
| MSLIDIHSHIIPNIDDGSKSLEMSLEMLKRAEESGTKKIIATPHFFKGYWTENYNSVKDKVKELNKLAKENNLNIEIYPGQEVFFNNYILEDFKLGDIGTLGESRYMLIEFPMDKIYFQKAIDEIYELKIKGITPVIAHPERYVDFINNPEEINQFIDEGYLFQLNGGSLTGLFGKEVKKTAELFLENNLYSFIGSDAHSNGNRNTSLKEACEVANSISRGASRRFEANGLALLNNEKIVFQGEGHHHHHH | soluble |
| MGSDKIHHHHHHMSWPLDDETASPHFSIRCLEEPMLINADFSRRAIVTPHEYQWVASPQGGVERVMLDRVGAEKARATSIVRYAPGSHFPRHQHPAGEEILVLSGTFSDEGGHYPAGWYLRNPPGSCHQPSSREGAMIFVKLRQMPLHEARRVRVDTRDPAAWRRQNGREVCPLFADDAEQVCLHRMAPNDALVAAQGDGAELLVLTGAVVAEGEIYGRGSWIRVPADDSLHVVAASQGATVYLKTGLPVAIGAEV | not soluble |
| VQVLRLGSVGPDVKLAQSLLNKIGYPVGAVDGIYGTRTRQAVIAFQRNNGLVADGIVGPATWSVFEQFLRGYAIYYVRPGDTLYNIAGRFYTSVNSIVTANPGINPNVINIGQRLVVPYGIDVVFTDIDYTYEIMERDIQGLKARYPFLETGVAGTSVLGRNLYYLRLGTGPRQVFYNAAHHAIEWITTVLLMKFAENFLKAYSTGSRIRGYNVREIWNQSSIYIVPMVNPDGVDLVLNGLSPTNPYYADLLRWNTTGRPFSQVWSANIRGVDLNRNYPASWEEAKAQEEALGIFGPGPTRYGGPYPLSEPESSAMVSFTRTHDFRLALAYHSQGRVIYWNYLNLAPPESLTIANAFARVSGYIVLDVPYEAAYAGYKDWFIQEYRRPGFTIEVGLGQNPLPISQFNTIYNDNEEILLLASLI | not soluble |
| MRLSISLGESPCISSLKVRGFTASPQTPNLSISVIVTAFNRREYLRYALLSLKNQEADSFEVVVSKNFSDRVTDKFCSENGFINVTTDSSRSGERVYDALRSSHGDFILFLDDDDIFRRTKISRVSDVISKRNVAFYRNAIFPVTVDGVIATHYQPQMHDPLYLILERVSDVRLLHRHACDFNSSSMGISRSMLDSHASDLRKINLAVDTFYFALAASSRMPLFCDSMIESIYRIMPSSTSRDLRDFYLFSRFERSFLRRYVPDLERIAEIVEGSPAKPVIGRMLSLYKILQYVFEEDRVNLKPSPLDRVRFLLERPFPYSLLYSRIFRDAAMRSEFRRENRIVYGNADRRRRLEHHHHHH | soluble |
